Km and kcat data for 3 proteins are collected here from PMC3749867, “Evolutionarily conserved structural changes in phosphatidylinositol 5-phosphate 4-kinase (PI5P4K) isoforms are responsible for differences in enzyme activity and localization” (Biochemical Journal, 2013).

Conditions in all cases: PtdIns5P co-substrate, 10 mM MgCl2, pH 7.4, 30 °C, ATP 0–150 μM
Substrate in data set [1]: Nc1ncnc2c1ncn2[C@@H]1O[C@H](COP(=O)(O)OP(=O)(O)OP(=O)(O)O)[C@@H](O)[C@H]1O
As to the kind of experiment: purified protein.

Substrate in data set [2]: Nc1ncnc2c1ncn2[C@@H]1O[C@H](COP(=O)(O)OP(=O)(O)OP(=O)(O)O)[C@@H](O)[C@H]1O
Nature of the data set: radiometric lipid kinase assay, TLC. It counts as biochemical, Homo sapiens. An excerpt: radiometric lipid kinase assay, TLC on PI5P4Kβ

Substrate in data set [3]: Nc1ncnc2c1ncn2[C@@H]1O[C@H](COP(=O)(O)OP(=O)(O)OP(=O)(O)O)[C@@H](O)[C@H]1O
As to the kind of experiment: radiometric lipid kinase assay, TLC. It counts as biochemical, Homo sapiens. This is another data set of the same source.

B1: PI5P4Kγ (Homo sapiens) (protein)
chain: ASSSVPPATVSAATAGPGPGFGFASKTKKKHFVQQKVKVFRAADPLVGVFLWGVAHSINELSQVPPPVMLLPDDFKASSKIKVNNHLFHRENLPSHFKFKEYCPQVFRNLRDRFGIDDQDYLVSLTRNPPSESEGSDGRFLISYDRTLVIKEVSSEDIADMHSNLSNYHQYIVKCHGNTLLPQFLGMYRVSVDNEDSYMLVMRNMFSHRLPVHRKYDLKGSLVSREASDKEKVKELPTLKDMDFLNKNQKVYIGEEEKKIFLEKLKRDVEFLVQLKIMDYSLLLGIHDIIRGSEPEEEAPVREDESEVDGDCSLTGPPALVGSYGTSPEGIGGYIHSHRPLGPGEFESFIDVYAIRSAEGAPQKEVYFMGLIDILTQYDAKKKAAHAAKTVKHGAGAEISTVHPEQYAKRFLDFITNIFA
For B1, in data set [1], the Km came out at 94.18 µM and the turnover number (kcat) came out at 5.72e-06 s⁻¹.

B2: PI5P4Kβ (Homo sapiens) (protein)
chain: MSSNCTSTTAVAVAPLSASKTKTKKKHFVCQKVKLFRASEPILSVLMWGVNHTINELSNVPVPVMLMPDDFKAYSKIKVDNHLFNKENLPSRFKFKEYCPMVFRNLRERFGIDDQDYQNSVTRSAPINSDSQGRCGTRFLTTYDRRFVIKTVSSEDVAEMHNILKKYHQFIVECHGNTLLPQFLGMYRLTVDGVETYMVVTRNVFSHRLTVHRKYDLKGSTVAREASDKEKAKDLPTFKDNDFLNEGQKLHVGEESKKNFLEKLKRDVEFLAQLKIMDYSLLVGIHDVDRAEQEEMEVEERAEDEECENDGVGGNLLCSYGTPPDSPGNLLSFPRFFGPGEFDPSVDVYAMKSHESSPKKEVYFMAIIDILTPYDTKKKAAHAAKTVKHGAGAEISTVNPEQYSKRFNEFMSNILT
notes: full-length cDNA in pGEX6P, E. coli BL21(DE3), GST fusion or GST cleaved by PreScission; mutant PI5P4Kβ+ His-tagged; homodimer
B2: in data set [2], the Km came out at 67.05 µM and the kcat turned out to be 9.55e-05 s⁻¹.

B3: PI5P4Kα (Homo sapiens) (protein)
chain: MATPGNLGSSVLASKTKTKKKHFVAQKVKLFRASDPLLSVLMWGVNHSINELSHVQIPVMLMPDDFKAYSKIKVDNHLFNKENMPSHFKFKEYCPMVFRNLRERFGIDDQDFQNSLTRSAPLPNDSQARSGARFHTSYDKRYIIKTITSEDVAEMHNILKKYHQYIVECHGITLLPQFLGMYRLNVDGVEIYVIVTRNVFSHRLSVYRKYDLKGSTVAREASDKEKAKELPTLKDNDFINEGQKIYIDDNNKKVFLEKLKKDVEFLAQLKLMDYSLLVGIHDVERAEQEEVECEENDGEEEGESDGTHPVGTPPDSPGNTLNSSPPLAPGEFDPNIDVYGIKCHENSPRKEVYFMAIIDILTHYDAKKKAAHAAKTVKHGAGAEISTVNPEQYSKRFLDFIGHILT
notes: full-length cDNA in pGEX6P, E. coli BL21(DE3), GST fusion or GST cleaved by PreScission; His6-tagged version used as standard for kcat conversion; homodimer
B3: in data set [3], the Km worked out at 3.94 µM and the kcat stood at 0.0105 s⁻¹.

Usually Km stands for the concentration of substrate that gives half-maximal velocity. The kcat is the number of substrate molecules converted per active site and unit of time at saturation.
